According to article PMC7211993:

Experiments:
[1] = target: MDA-modified bovine serum albumin (bovine) (UniProt P02769); test: MST; microscale thermophoresis with both binding partners in fluid phase
[2] = target: MDA-modified bovine serum albumin (bovine) (UniProt P02769); test: ELISA; plasma added to coated MDA-BSA; bound CFH/FHL-1 detected with a monoclonal antibody that recognizes SCR5; read-out RLU/100 ms

Chain of MDA-modified bovine serum albumin (bovine) (P02769 25-607): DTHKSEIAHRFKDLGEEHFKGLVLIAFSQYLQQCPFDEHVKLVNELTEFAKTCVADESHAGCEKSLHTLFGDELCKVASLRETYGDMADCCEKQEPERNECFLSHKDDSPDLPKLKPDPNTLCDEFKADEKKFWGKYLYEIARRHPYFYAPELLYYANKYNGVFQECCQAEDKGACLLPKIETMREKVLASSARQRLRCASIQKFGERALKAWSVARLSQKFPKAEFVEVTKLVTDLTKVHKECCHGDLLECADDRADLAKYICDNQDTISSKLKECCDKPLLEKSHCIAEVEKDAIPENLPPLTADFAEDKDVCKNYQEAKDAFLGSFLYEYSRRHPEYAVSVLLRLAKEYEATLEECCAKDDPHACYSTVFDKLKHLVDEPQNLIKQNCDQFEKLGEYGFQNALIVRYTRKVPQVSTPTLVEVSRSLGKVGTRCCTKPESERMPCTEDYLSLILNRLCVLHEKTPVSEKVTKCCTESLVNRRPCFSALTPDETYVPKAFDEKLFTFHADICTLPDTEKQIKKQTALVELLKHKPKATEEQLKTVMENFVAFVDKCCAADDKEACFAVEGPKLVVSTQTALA
Chain of complement factor H and its splice variant factor H-like protein 1 in plasma (study cohorts, all rs1061170 genotypes) (P08603 19-1231, change not shown): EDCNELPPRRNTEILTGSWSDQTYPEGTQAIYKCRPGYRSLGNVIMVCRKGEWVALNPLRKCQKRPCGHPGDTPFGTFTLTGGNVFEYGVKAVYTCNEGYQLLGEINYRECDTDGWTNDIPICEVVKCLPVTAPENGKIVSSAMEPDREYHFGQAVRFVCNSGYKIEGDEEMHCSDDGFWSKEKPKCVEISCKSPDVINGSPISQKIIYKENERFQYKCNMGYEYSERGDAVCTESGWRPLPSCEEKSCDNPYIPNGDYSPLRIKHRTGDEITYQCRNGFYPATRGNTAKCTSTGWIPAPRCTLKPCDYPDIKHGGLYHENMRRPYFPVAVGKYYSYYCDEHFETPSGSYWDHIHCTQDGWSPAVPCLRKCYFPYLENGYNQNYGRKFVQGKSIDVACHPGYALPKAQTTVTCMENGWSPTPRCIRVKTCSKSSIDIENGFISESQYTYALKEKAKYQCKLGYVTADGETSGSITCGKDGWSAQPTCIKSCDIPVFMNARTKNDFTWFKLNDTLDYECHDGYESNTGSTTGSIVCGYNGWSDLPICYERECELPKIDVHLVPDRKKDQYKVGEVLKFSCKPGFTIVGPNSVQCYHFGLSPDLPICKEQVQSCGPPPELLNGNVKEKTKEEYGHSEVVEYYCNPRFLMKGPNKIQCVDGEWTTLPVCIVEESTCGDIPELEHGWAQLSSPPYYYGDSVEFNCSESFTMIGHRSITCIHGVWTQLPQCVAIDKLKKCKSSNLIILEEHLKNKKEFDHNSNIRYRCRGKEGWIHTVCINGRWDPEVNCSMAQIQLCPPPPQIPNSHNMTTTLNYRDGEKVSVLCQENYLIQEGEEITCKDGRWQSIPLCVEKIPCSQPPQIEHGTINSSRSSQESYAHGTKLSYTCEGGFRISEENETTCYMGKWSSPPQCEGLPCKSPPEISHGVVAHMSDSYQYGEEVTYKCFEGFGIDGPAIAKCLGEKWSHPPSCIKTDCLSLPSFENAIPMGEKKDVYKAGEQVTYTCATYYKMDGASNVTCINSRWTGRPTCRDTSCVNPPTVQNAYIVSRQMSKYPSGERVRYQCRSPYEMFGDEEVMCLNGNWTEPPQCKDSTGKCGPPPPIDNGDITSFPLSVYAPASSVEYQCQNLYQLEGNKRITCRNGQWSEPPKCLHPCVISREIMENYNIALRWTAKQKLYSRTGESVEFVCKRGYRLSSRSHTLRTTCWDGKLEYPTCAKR

Kd [1] [nM] | binding to MDA-BSA, median of healthy individuals (n = 934) [2] [RLU/100 ms] | binding to MDA-BSA, median of patients with major depression (n = 896) [2] [RLU/100 ms] | binding to MDA-BSA, median of the integrated cohort (n = 1,830) [2] [RLU/100 ms] | Substance
3480 |  |  |  | recombinant complement factor H-related protein 3 (from UniProt Q02985 19-330) (natural protein)
 | 24200 | 24800 | 24600 | complement factor H and its splice variant factor H-like protein 1 in plasma (study cohorts, all rs1061170 genotypes) (from UniProt P08603 19-1231) (natural protein)
860 |  |  |  | recombinant complement factor H-related protein 1 (from UniProt Q03591 19-330) (natural protein)
